Assay results taken from patent US20080167229A1 (Dana-Farber, published 2008).

Experiments:
[1] = target: T1, N-terminal cleavage product of endogenous USP1 (human, UniProt O94782 1-671); experiment: anti-Flag immunoprecipitation from transiently transfected 293T cells, anti-USP1 immunoblot
T1 construct: the end at 671 is inferred from that; also called N-terminal USP1; N-terminal USP1 fragment
T1 sequence: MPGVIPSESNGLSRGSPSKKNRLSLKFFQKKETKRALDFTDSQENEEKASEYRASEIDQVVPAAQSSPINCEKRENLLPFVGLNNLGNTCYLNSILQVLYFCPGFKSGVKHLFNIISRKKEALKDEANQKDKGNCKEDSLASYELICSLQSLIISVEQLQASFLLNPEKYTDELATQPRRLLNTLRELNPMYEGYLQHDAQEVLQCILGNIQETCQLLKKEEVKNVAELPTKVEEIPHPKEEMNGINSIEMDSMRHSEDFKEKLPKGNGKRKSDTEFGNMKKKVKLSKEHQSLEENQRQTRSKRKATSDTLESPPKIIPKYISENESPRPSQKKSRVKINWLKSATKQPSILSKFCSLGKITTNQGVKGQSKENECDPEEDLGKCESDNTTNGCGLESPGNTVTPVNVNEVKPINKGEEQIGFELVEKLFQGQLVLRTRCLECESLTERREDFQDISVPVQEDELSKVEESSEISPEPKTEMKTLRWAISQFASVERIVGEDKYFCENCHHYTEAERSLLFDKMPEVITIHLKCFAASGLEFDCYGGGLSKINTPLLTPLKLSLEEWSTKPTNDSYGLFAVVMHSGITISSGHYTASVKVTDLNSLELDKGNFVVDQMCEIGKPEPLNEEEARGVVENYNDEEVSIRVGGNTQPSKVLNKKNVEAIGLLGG
Procedure: (§1) The Flag-tagged proteins were immunoprecipitated from cell lysates using anti-Flag antibodies. The immunoprecipitates were analyzed using the indicated antibodies. […] The concentrations of all proteins were 10 nM.

[2] = target: T2, endogenous USP1, full length (HeLa and 293T cells) (human, UniProt O94782 1-785); experiment: as above
T2 construct: Full length endogenous protein detected in immunoprecipitates; also called Ubiquitin Specific Protease 1
T2 sequence: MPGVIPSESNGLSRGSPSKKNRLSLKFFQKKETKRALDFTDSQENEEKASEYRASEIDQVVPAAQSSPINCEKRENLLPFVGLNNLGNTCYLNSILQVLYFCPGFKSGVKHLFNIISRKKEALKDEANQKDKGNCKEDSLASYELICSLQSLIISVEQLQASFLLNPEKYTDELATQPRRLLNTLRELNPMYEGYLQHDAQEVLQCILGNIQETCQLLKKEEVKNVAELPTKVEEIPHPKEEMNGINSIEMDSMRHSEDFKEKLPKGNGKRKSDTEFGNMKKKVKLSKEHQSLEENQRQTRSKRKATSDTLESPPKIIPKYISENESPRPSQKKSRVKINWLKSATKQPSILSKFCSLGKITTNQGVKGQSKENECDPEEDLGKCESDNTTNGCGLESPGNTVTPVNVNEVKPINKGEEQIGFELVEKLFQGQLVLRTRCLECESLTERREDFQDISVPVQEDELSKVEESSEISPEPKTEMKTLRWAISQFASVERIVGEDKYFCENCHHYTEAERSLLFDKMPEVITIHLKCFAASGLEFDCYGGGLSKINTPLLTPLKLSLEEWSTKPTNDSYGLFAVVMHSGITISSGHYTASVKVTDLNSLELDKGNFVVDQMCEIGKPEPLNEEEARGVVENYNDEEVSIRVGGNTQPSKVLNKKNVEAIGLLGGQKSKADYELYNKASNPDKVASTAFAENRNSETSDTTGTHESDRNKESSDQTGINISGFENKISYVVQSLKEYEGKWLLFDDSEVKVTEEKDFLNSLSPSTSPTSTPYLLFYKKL
Procedure: as §1

- binding result [1]: no binding
- binding result [2]: no binding
B1: Flag-tagged UAF1-Δ507-546 expressed in 293T cells (other)
chain: MAAHHRQNTAGRRKVQVSYVIRDEVEKYNRNGVNALQLDPALNRLFTAGRDSIIRIWSVNQHKQDPYIASMEHHTDWVNDIVLCCNGKTLISASSDTTVKVWNAHKGFCMSTLRTHKDYVKALAYAKDKELVASAGLDRQIFLWDVNTLTALTASNNTVTTSSLSGNKDSIYSLAMNQLGTIIVSGSTEKVLRVWDPRTCAKLMKLKGHTDNVKALLLNRDGTQCLSGSSDGTIRLWSLGQQRCIATYRVHDEGVWALQVNDAFTHVYSGGRDRKIYCTDLRNPDIRVLICEEKAPVLKMELDRSADPPPAIWVATTKSTVNKWTLKGIHNFRASGDYDNDCTNPITPLCTQPDQVIKGGASIIQCHILNDKRHILTKDTNNNVAYWDVLKACKVEDLGKVDFEDEIKKRFKMVYVPNWFSVDLKTGMLTITLDESDCFAAWVSAKDAGFSSPDGSDPKLNLGGLLLQALLEYWPRTHVNPMDEEENEVNHVNGEQENRVQKGNGYPQWVIDITVDKNMPKFNKIPFYLQPHASSGAKTLKKDRLSASDMLQVRKVMEHVYEKIINLDNESQTTSSSNNEKPGEQEKEEDIAVLAEEKIELLCQDQVLDPNMDLRTVKHFIWKSGGDLTLHYRQKS
notes: Deletion of aa 507-546 as printed; not shown: Flag tag
